Reference: patent publication US10221217

What was measured:
[1] = target: c1d1_N386D displayed on yeast (S. cerevisiae); test: Fab titration on yeast-displayed construct, flow cytometry
[2] = target: c1d1_v2 displayed on yeast (S. cerevisiae); test: as above
[3] = target: c1d1_b10disulf displayed on yeast (S. cerevisiae); test: as above
c1d1_N386D [4] = test: SPR, IgG captured by anti-human IgG, construct as analyte
[5] = target: ODml(N386) (Human immunodeficiency virus type 1 group M subtype B (isolate HXB2) (HIV-1)) (UniProt P04578); test: as above
[6] = target: wild-type core GP120 (Human immunodeficiency virus type 1 group M subtype B (isolate HXB2) (HIV-1)) (UniProt P04578); test: as above
c2d1_b10disulf = test: as above
c1d1_minglyc [7] = test: as above
c1d1_v2 [8] = test: as above
eOD_N276D_N463D [9] = test: method not stated; protein from 293 cells
[10] = target: eOD_VH1-2_v6.0 (HIV-1 HxB2 (engineered)); test: SPR, IgG captured by anti-human IgG, eOD as analyte, 1:1 fit with mass transport
[11] = target: eOD_VH1-2_v6.0 (HIV-1 HxB2 (engineered)); test: dissociation constant, SPR (FIG. 3)
c1d1_N386D [12] = test: ITC
c1d1_b10disulf [13] = test: ITC
c1d1_v2 [14] = test: ITC
eOD_VD(-)_g6 = test: Kd, method not stated; construct from 293 cells
eOD_VD(-)_g5 = test: Kd, method not stated; construct from 293 cells
eOD_VD(-)_g3 = test: Kd, method not stated; construct from 293 cells
eOD_VD(-)_g7 = test: Kd, method not stated; construct from 293 cells
eOD_VD(-)_g4 = test: Kd, method not stated; construct from 293 cells
eOD_VD(-)_g8 = test: Kd, method not stated; construct from 293 cells
eOD_VD(-)_g2 = test: Kd, method not stated; construct from 293 cells
c1d1_N386D [15] = test: method not given
eOD_N276D = test: method not stated
[16] = target: eOD_T257S_S375W (HIV-1 HxB2 (engineered)); test: method not stated
eOD_L260F_N276D = test: method not stated
eOD_L260F = test: method not stated
eOD_T257S_L260F_S375W = test: method not stated
c1d1_N386D [17] = test: SPR and ITC
[18] = target: ODml(N386) (Human immunodeficiency virus type 1 group M subtype B (isolate HXB2) (HIV-1)) (UniProt P04578); test: SPR (value differs from Table 1)
c1d1_b2021 [19] = test: SPR, IgG captured by anti-human IgG, construct as analyte
[20] = target: ODml(D386) (Human immunodeficiency virus type 1 group M subtype B (isolate HXB2) (HIV-1)) (UniProt P04578); test: as above
c1d1_b10disulf [21] = test: as above
[22] = target: OD(D386) (Human immunodeficiency virus type 1 group M subtype B (isolate HXB2) (HIV-1)) (UniProt P04578); test: as above
[23] = target: ODml(d1_disulf) (Human immunodeficiency virus type 1 group M subtype B (isolate HXB2) (HIV-1)) (UniProt P04578); test: as above
c1d1_b2021 [24] = test: SPR
[25] = target: ODml(D386) (Human immunodeficiency virus type 1 group M subtype B (isolate HXB2) (HIV-1)) (UniProt P04578); test: SPR
c1d1_N386D [26] = test: SPR
c1d1_minglyc [27] = test: SPR
[28] = target: ODml(d1_disulf) (Human immunodeficiency virus type 1 group M subtype B (isolate HXB2) (HIV-1)) (UniProt P04578); test: SPR
c1d1_v2 [29] = test: SPR
c1d1_N386D [30] = test: ITC, b12 IgG
[31] = target: eOD_VH1-2_v6.0 (HIV-1 HxB2 (engineered)); test: dissociation constant, method not stated
[32] = target: eOD_VH1-2_v6.0 (HIV-1 HxB2 (engineered)); test: SPR, IgG captured by anti-human IgG, eOD as analyte, 1:1 kinetic fit
[33] = target: eOD_VH1-2_v1.0 (HIV-1 HxB2 (engineered)); test: SPR
[34] = target: core_gp120_VH1-2_v2.0 (HIV-1 BaL (engineered)); test: SPR
[35] = target: eOD_VH1-2_v6.0 (HIV-1 HxB2 (engineered)); test: dissociation constant, SPR (FIG. 2)
eOD_N276D_N463D [36] = test: method not stated
[37] = target: eOD_VH1-2_v4.0 (HIV-1 HxB2 (engineered)); test: method not stated

VRC01 Fab
Kd [1]: > 50 nM
Kd [2]: > 50 nM
Kd [3]: > 50 nM

VRC01 IgG (mature) (antibody)
Kd (c1d1_N386D [4]): 139 nM
Kd [5]: 298 nM
Kd [6]: 3.9 nM
Kd (c2d1_b10disulf): 289 nM
Kd (c1d1_minglyc [7]): 7.5 nM
Kd (c1d1_v2 [8]): 249 nM
Kd (eOD_N276D_N463D [9]): 4 nM
Kd [10]: 1.7 nM
koff [10]: 0.000251 s⁻¹
kon [10]: 148000 M⁻¹ s⁻¹
Kd [11]: 1.7 nM
Kd (c1d1_N386D [12]): 200 nM
Kd (c1d1_b10disulf [13]): 100 nM
fold improvement of KD over c1d1 N386D (c1d1_b10disulf [13]): 2 fold
Kd (c1d1_v2 [14]): 100 nM
Kd (eOD_VD(-)_g6): 4.6 nM
Kd (eOD_VD(-)_g5): 15 nM
Kd (eOD_VD(-)_g3): 4.7 nM
Kd (eOD_VD(-)_g7): 109 nM
Kd (eOD_VD(-)_g4): 7.3 nM
Kd (eOD_VD(-)_g8): 2.8 nM
Kd (eOD_VD(-)_g2): 7 nM
Kd (c1d1_N386D [15]): 80 nM
fold weaker affinity than core gp120 (c1d1_N386D [15]): > 10 fold
Kd (eOD_N276D): 27.8 nM
Kd [16]: 90 nM
Kd (eOD_L260F_N276D): 11.9 nM
Kd (eOD_L260F): 14.3 nM
Kd (eOD_T257S_L260F_S375W): 8.6 nM
fold weaker KD than core gp120 (c1d1_N386D [17]): 35 to 50 fold
Kd [18]: 530 nM

b12 Fab
Kd [1]: 21 nM
Kd [2]: 11 nM

b12 IgG (antibody)
Kd (c1d1_b2021 [19]): 120 nM
Kd [20]: 530 nM
Kd (c1d1_N386D [4]): 59 nM
Kd [5]: 1900 nM
Kd [6]: 4.5 nM
Kd (c2d1_b10disulf): 148 nM
Kd (c1d1_b10disulf [21]): 200 nM
Kd (c1d1_minglyc [7]): 31 nM
Kd [22]: 1600 nM
Kd [23]: 175 nM
Kd (c1d1_v2 [8]): 30 nM
Kd (c1d1_b2021 [24]): 148 nM
fold weaker KD than c1d1 N386D (c1d1_b2021 [24]): 2.5 fold
fold improvement of KD over OD(D386) [25]: 3 fold
fold improvement of KD over OD(386) (c1d1_N386D [26]): 28 fold
fold improvement of KD over ODml (c1d1_N386D [26]): 9 fold
fold improvement of KD over c1d1 N386D (c1d1_minglyc [27]): 2 fold
fold improvement of KD over OD(D386) [28]: 9 fold
fold improvement of KD over ODml [28]: 3 fold
fold improvement of KD over c1d1 N386D (c1d1_v2 [29]): 2 fold
fold improvement of KD over c1d1 b10disulf (c1d1_v2 [29]): 8 fold
Kd (eOD_VD(-)_g6): 514 nM
Kd (eOD_VD(-)_g5): 132 nM
Kd (eOD_VD(-)_g3): 21.6 nM
Kd (eOD_VD(-)_g7): 421 nM
Kd (eOD_VD(-)_g4): 76 nM
Kd (eOD_VD(-)_g8): 7 nM
Kd (eOD_VD(-)_g2): 96 nM
Kd (c1d1_N386D [30]): 65 nM

germline NIH45-46 (antibody)
Kd [31]: 408 nM

germline VRC01 (antibody)
Kd [32]: 43.6 nM
koff [32]: 0.000683 s⁻¹
kon [32]: 15700 M⁻¹ s⁻¹
Kd [33]: 40000 nM
Kd [34]: 1600 nM
Kd [35]: 44 nM
Kd (eOD_N276D): 640000 nM
Kd (eOD_N276D_N463D [36]): 380000 nM
Kd (eOD_L260F_N276D): 149000 nM
Kd (eOD_L260F): > 500000 nM
Kd [37]: 100 nM

mature NIH45-46 (antibody)
Kd [31]: 3.8 nM
